{"source": "patent US12097265B2", "about": "“Cytotoxic particles for targeting P2X7 receptor” (BIOSCEPTRE (AUST) PTY LTD, priority 2016, dated 2024)", "key": {"4T1 murine breast tumour [1]": {"tested_on": "4T1 murine breast tumour", "assay": "Efficacy of gemcitabine liposome nanoparticles in the 4T1 murine breast tumour model", "assay_type": "in vivo, mice", "details": "0.2 mg gemcitabine, intravenously 3 times a week; versus HEL4-coated nanoparticles containing gemcitabine; P=0.0456", "procedure": "This study aimed to determine the efficacy of P2X7-binding domain-coated nanoparticles (i.e., “BIL03s-coated”) and HEL4-coated nanoparticles to deliver the cytotoxic agent gemcitabine to tumours in the 4T1 murine breast tumour model.\nNanoparticles were administered intravenously, 3 times a week. Nanoparticles contained either 0.2 mg gemcitabine or PBS buffer (control).\nTumour volume was measured over the study period (see FIG. 10). Mice were terminated when estimated tumour volume exceeded 1000 mm^3."}, "4T1 murine breast tumour [2]": {"tested_on": "4T1 murine breast tumour", "assay": "Dosing regimen investigation: coated nanoparticles versus free gemcitabine, tumour growth", "assay_type": "in vivo, mice"}, "[3]": {"tested_on": "4T1-luc2 murine breast cancer cells", "assay": "Biodistribution imaging of fluorescently labelled nanoparticles in 4T1-luc2 tumour bearing mice", "assay_type": "in vivo", "procedure": "The near-infrared (NIR) lipophilic fluorescent dye DiR (ThermoFisher) was incorporated into the lipid bilayer of naked nanoparticles, nanoparticles coated with HEL4 (isotype) and nanoparticles coated with variable domains for binding to anti-P2X7R (P2X7-binding domain-coated nanoparticles, or “BIL03s-coated”). Female Balb/c mice were inoculated orthotopically (4th mammary fat pad) with 4T1-luc2 murine breast cancer cells. A 50 μL dose of nanoparticles was injected intravenously at study day 0 and near-infrared (NIR) imaging was performed at 6, 12, 24, 48 and 96 […]. At termination, excised liver, spleen and tumour NIR imaging was performed and bioluminescence imaging was performed on tumour tissues."}}}
{"molecule": "P2X7-binding domain-coated nanoparticles containing gemcitabine: Liposome of DOPC, oleyl-gemcitabine carbamate conjugate and Maleimido-Succinyl-PEG4000-Oleate, conjugated to an anti-P2X7R single … (conjugate) VH: EVQLLESGGGLVQPGGSLRLSCAASGFTFRNHDMGWVRQAPGKGLEWVSAISGSGGSTYYANSVKGRFTISRDNSKNTLYLQMNSLRAEDTAVYYCAEPKPMDTEFDYRSPGTLVTVSS", "values": [{"measurement": "survival", "setting": "4T1 murine breast tumour [1]", "result": "prolonged survival"}, {"measurement": "tumour suppression (tumour volume)", "setting": "4T1 murine breast tumour [1]", "result": "greater tumour suppression"}, {"measurement": "efficacy for inhibiting tumour growth", "setting": "4T1 murine breast tumour [2]; equivalent to 0.3 mg gemcitabine, intravenously twice per week (FIG. 11), versus 0.3 mg free gemcitabine", "result": "comparable"}, {"measurement": "release of cytotoxic agent", "setting": "4T1 murine breast tumour [2]; general statement", "result": "sustained release"}, {"measurement": "toxicity", "setting": "4T1 murine breast tumour [2]; general statement, versus existing cancer treatments", "result": "lower toxicity"}, {"measurement": "accumulation in the excised tumour", "setting": "[3]; ex vivo bioluminescence imaging at 96 hr, FIG. 9, versus naked nanoparticles", "result": "higher accumulation in the excised tumour"}, {"measurement": "accumulation in tumours", "setting": "[3]; whole animal NIR imaging and ex vivo bioluminescence, 50 μL intravenous on day 0, versus naked or HEL4-coated control nanoparticles", "result": "greater accumulation in tumours"}, {"measurement": "retention in the tumour", "setting": "[3]; whole animal NIR imaging, FIG. 7, versus non antibody-conjugated particles", "result": "retained in the tumour much longer"}]}
